{"source": "patent US6458355", "about": "(Genentech, dated 2002)", "molecular_target": "T1, recombinant human IL-8, (ser-IL-8)72 (human, UniProt P10145 28-99)", "T1 construct": "mature; also called human wild type IL-8; wt IL-8", "T1 sequence (looked up)": "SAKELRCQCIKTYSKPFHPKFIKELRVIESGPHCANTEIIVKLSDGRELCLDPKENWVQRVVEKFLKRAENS", "assay": "competition of 125I-IL-8 binding to human neutrophils"}
{"binder": "humanized 6G425 F(ab)-1 (Fab, V domains shown, Fab with human kappa subgroup I light and human IgG1 subgroup III heavy chain (pEMX1); CDR swap; also called version 1; V1) VH: EVQLVESGGGLVQPGGSLRLSCAASGYSFSSHYMHWVRQAPGKGLEWVGYIDPSNGETTYNQKFKGRFTISRDNSKNTLYLQMNSLRAEDTAVYYCARGDYRYNGDWFFDVWGQGT VL: DIQMTQSPSSLSASVGDRVTITCRSSQSLVHGIGNTYLHWYQQKPGKAPKLLIYKVSNRFSGVPSRFSGSGSGTDFTLTISSLQPEDFATYYCSQSTHVPLTFGQGTKVEIKR", "values": [{"measurement": "fold reduction in binding affinity (against the chimeric F(ab))", "value": 5.5, "unit": "fold"}]}
